The source of these data is patent US6551840B2, “Method of screening TGF-β-inhibiting substances” (Chugai Seiyaku Kabushiki Kaisha, priority 1997, dated 2003).

Experiment [1] deals with Mv1Lu cell. Description: PAI-1 ELISA in culture supernatant of Mv1Lu cells with or without TGF-β1. To be noted: Mv1Lu cells with forced expression; 10 ng/ml TGF-β1, 24 hours; control cells about 16-fold. The class given is cell-based, mink. The source says:
Accordingly, TAK1DN was subjected to forced expression in the Mv1Lu cell to investigate the effects of TGF-β stimulation on PAI-1 expression. The TAK1DN expression vector used was the above-mentioned TAK1DN, and the TAK1 polypeptide mutant TAK1-K63W expression vector was constructed by inserting a gene (Yamaguchi K. et al., (1995) Science 270, 2008-2011) encoding the TAK1 polypeptide mutant TAK1-K63W in which the lysine residue at position 63 has been replaced with the tryptophan residue at the EcoRI and NotI restriction enzyme site of pCOS1 to give pTAK1K63W.
The Mv1Lu cells into which pTAK1Dn had been introduced (Mv/DN2), the cells into which pTAK1K63W had been introduced (Mv/KN7), and the control cells into which pCOS1 containing no inserted genes (Mv/NEO) had been introduced were each incubated in a low-serum medium (MEM medium containing 0.2% FBS; manufactured by GIBCO-BRL) with or without 10 ng/ml of TGF-β1 for 24 hours. The amount of PAI-1 in the culture supernatant was determined using the PAI-1 Quantative ELISA (manufactured by CALBIOCHEM).
Background: An ELISA detects its analyte on a solid surface through an enzyme-linked reagent.

The test system of experiment [2] is Mv1Lu cell. To be noted: Yamaguchi K. et al., (1995) Science 270, 2008-2011; cited from earlier work.

B1: TAK1-K63W: catalytically inactive TAK1 polypeptide mutant in which the lysine residue at position 63 has been replaced with the tryptophan residue (protein, UniProt O43318 1-606, looked up, variant K63W)
Mitogen-activated protein …: MSTASAASSSSSSSAGEMIEAPSQVLNFEEIDYKEIEVEEVVGRGAFGVVCKAKWRAKDVAIWQIESESERKAFIVELRQLSRVNHPNIVKLYGACLNPVCLVMEYAEGGSLYNVLHGAEPLPYYTAAHAMSWCLQCSQGVAYLHSMQPKALIHRDLKPPNLLLVAGGTVLKICDFGTACDIQTHMTNNKGSAAWMAPEVFEGSNYSEKCDVFSWGIILWEVITRRKPFDEIGGPAFRIMWAVHNGTRPPLIKNLPKPIESLMTRCWSKDPSQRPSMEEIVKIMTHLMRYFPGADEPLQYPCQYSDEGQSNSATSTGSFMDIASTNTSNKSDTNMEQVPATNDTIKRLESKLLKNQAKQQSESGRLSLGASRGSSVESLPPTSEGKRMSADMSEIEARIAATTAYSKPKRGHRKTASFGNILDVPEIVISGNGQPRRRSIQDLTVTGTEPGQVSSRSSSPSVRMITTSGPTSEKPTRSHPWTPDDSTDTNGSDNSIPMAYLTLDHQLQPLAPCPNSKESMAVFEQHCKMAQEYMKVQTEIALLLQRKQELVAELDQDEKDQQNTSRLVQEHKKLLDENKSLSTYYQQCKKQLEVIRSQQQKRQGTS
Take B1: the “increase in PAI-1 in the culture supernatant by TGF-β1 addition” value in experiment [1] is “about 6.5 fold”. Moreover, the “effect of forced expression on PAI-1 expression stimulated by TGF-β” value in experiment [2] was “PAI-1 expression is inhibited”.
